Reference: the supplement of paper PMC10724198
± gives the standard deviation of the averaged measurements.

Test system: Saccharomyces cerevisiae
Experiment: protein stability index of tFT-peptide fusion (C-terminal peptide) (PSI (0-1 scale)); higher = more stable (slower turnover)
Settings: temperature: 30 C
Experimental: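 MPS profiling in S. cerevisiae of the yeast C-terminome library: the last 12 aa of each annotated ORF are fused to the C-terminus of a sfGFP-mCherry timer, after a GGGS linker. Cells are FACS-sorted into 8 mCherry/sfGFP bins and deep-sequenced. PSI runs from 0 (unstable) to 1 (stable); wild type and das1Δ backgrounds, two technical replicates each.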

[1] = genetic background: das1 deletion

| Sequence | protein stability index [1] | protein stability index (genetic background: wild type) |
| --- | --- | --- |
| LSQWVSQMPFPM [LRO1 C-terminal 12 aa] | 0.79828 ± 0.00044 | 0.8015 ± 0.0025 |
| FVLIVLGLLTYL [GET2 C-terminal 12 aa] | 0.364 ± 0.0094 | 0.38 ± 0.019 |
| RAYCVGFKWVRF [MCH5 C-terminal 12 aa] | 0.675 ± 0.02 | 0.145 ± 0.028 |
| TSDQKNKRTQFS [RPB9 C-terminal 12 aa] | 0.6969 ± 0.0066 | 0.667 ± 0.07 |
| QNARAAFKSTLV [YDR514C C-terminal 12 aa] | 0.707 ± 0.012 | 0.698 ± 0.044 |
| SPRLKENEHVTN [MPC54 C-terminal 12 aa] | 0.693 ± 0.013 | 0.724 ± 0.072 |
| WTTEPYLQRIIW [DIE2 C-terminal 12 aa] | 0.753 ± 0.0089 | 0.718 ± 0.016 |
| SFRSSHFYSLIA [YLR217W C-terminal 12 aa] | 0.691 ± 0.012 | 0.331 ± 0.016 |
| ERAYMYYLRNGK [NAM9 C-terminal 12 aa] | 0.656 ± 0.023 | 0.625 ± 0.021 |
| LTSIWKTILFFK [YEL076C C-terminal 12 aa] | 0.41 ± 0.014 | 0.468 ± 0.061 |
| KFDIVDQLLSTL [RSM24 C-terminal 12 aa] | 0.7136 ± 0.0037 | 0.684 ± 0.014 |
| RKRFSYTQTKNK [RSM19 C-terminal 12 aa] | 0.678 ± 0.013 | 0.66787 ± 0.00059 |
| RKFFKRMTNFWC [TAT1 C-terminal 12 aa] | 0.7409 ± 0.0066 | 0.436 ± 0.025 |
| RTLGYSNNNGNN [UBX6 C-terminal 12 aa] | 0.679 ± 0.019 | 0.678 ± 0.0087 |
| WAVICFCSGIHK [YMR027W C-terminal 12 aa] | 0.5858 ± 0.0021 | 0.546 ± 0.013 |
| RTAAESIANDRK [FRD1 C-terminal 12 aa] | 0.674 ± 0.0068 | 0.708 ± 0.05 |
| LPGINSIFKNIF [TOD6 C-terminal 12 aa] | 0.774 ± 0.016 | 0.722 ± 0.063 |
| PGPISFLPVIPI [YLR402W C-terminal 12 aa] | 0.7092 ± 0.0061 | 0.744 ± 0.12 |
| KKSKNRNTSLRP [SIP5 C-terminal 12 aa] | 0.726 ± 0.02 | 0.689 ± 0.02 |
| ILWKNGIYIAHI [HUR1 C-terminal 12 aa] | 0.659 ± 0.01 | 0.6113 ± 0.0034 |
| LEHYSLSTFVCC [YAL045C C-terminal 12 aa] | 0.326 ± 0.032 | 0.3476 ± 0.0029 |

| Sequence | protein stability index [1] | protein stability index (genetic background: wild type) |
| --- | --- | --- |
| RQEEIKKRTALV [DPC25 C-terminal 12 aa] | 0.705 ± 0.0089 | 0.619 ± 0.022 |
| AVNALNEAMDKL [BNA5 C-terminal 12 aa] | 0.677 ± 0.015 | 0.696 ± 0.11 |
| YIFQTYVSVDSK [YAR047C C-terminal 12 aa] | 0.62 ± 0.036 | 0.58 ± 0.015 |
| DKIDVVLKKISQ [ECM15 C-terminal 12 aa] | 0.7095 ± 0.0048 | 0.683 ± 0.067 |
| KKNGKISEKPKK [PDR15 C-terminal 12 aa] | 0.727 ± 0.02 | 0.677 ± 0.037 |
| FFSKKRPNIDSK [YOL037C C-terminal 12 aa] | 0.696 ± 0.011 | 0.684 ± 0.058 |
| DTFFDRVMKVLT [NAN1 C-terminal 12 aa] | 0.707 ± 0.034 | 0.6917 ± 0.0012 |
| TIEEVKIPGLDI [MRPL50 C-terminal 12 aa] | 0.701 ± 0.0088 | 0.711 ± 0.0074 |
| KNFKTDLSSSSL [SMK1 C-terminal 12 aa] | 0.7 ± 0.0086 | 0.711 ± 0.014 |
| VFEVFSRMDMLL [VPS74 C-terminal 12 aa] | 0.7149 ± 0.0058 | 0.773 ± 0.027 |
| SEPTNDDLDATK [MRX10 C-terminal 12 aa] | 0.678 ± 0.033 | 0.675 ± 0.019 |
| ALSKDGIYTITN [PAU13 C-terminal 12 aa] | 0.706 ± 0.027 | 0.679 ± 0.014 |
| DIDDDVGEDSED [RMR1 C-terminal 12 aa] | 0.694 ± 0.014 | 0.662 ± 0.013 |
| PDVLRKLSHQNV [PNS1 C-terminal 12 aa] | 0.713 ± 0.0075 | 0.666 ± 0.025 |
| VMQELRKLKNAM [GLO4 C-terminal 12 aa] | 0.709 ± 0.018 | 0.64 ± 0.025 |
| VHAENTTLREIL [CDC50 C-terminal 12 aa] | 0.706 ± 0.036 | 0.7076 ± 0.0047 |
| SVESLMTQQDVE [BIO4 C-terminal 12 aa] | 0.691 ± 0.011 | 0.6941 ± 0.0037 |
| YEEFALRSGSSS [AFG2 C-terminal 12 aa] | 0.715 ± 0.022 | 0.676 ± 0.014 |
| VLGDVIKIAQRL [HOM6 C-terminal 12 aa] | 0.728 ± 0.008 | 0.747 ± 0.031 |
| PQRTKIQAFNTL [MRP1 C-terminal 12 aa] | 0.70194 ± 0.0001 | 0.675 ± 0.029 |
| TISNWIQETKEV [STO1 C-terminal 12 aa] | 0.70591 ± 0.00011 | 0.7293 ± 0.0034 |

| Sequence | protein stability index [1] | protein stability index (genetic background: wild type) |
| --- | --- | --- |
| NTGFDPHLEDGM [TBF1 C-terminal 12 aa] | 0.708 ± 0.032 | 0.691 ± 0.039 |
| LESTHDKAIAGK [MNN2 C-terminal 12 aa] | 0.6974 ± 0.0069 | 0.684 ± 0.021 |
| KAALDRVENALA [IML2 C-terminal 12 aa] | 0.699 ± 0.02 | 0.676 ± 0.017 |
| SIVYSWKENSSS [YGL217C C-terminal 12 aa] | 0.704 ± 0.031 | 0.703 ± 0.015 |
| AGATTSRFIPLK [RPS15 C-terminal 12 aa] | 0.685 ± 0.023 | 0.652 ± 0.01 |
| RKSKRVLPVSKF [PET309 C-terminal 12 aa] | 0.783 ± 0.0088 | 0.794 ± 0.087 |
| PHSQNEILQYYL [NAT1 C-terminal 12 aa] | 0.705 ± 0.0095 | 0.722 ± 0.065 |
| TNGITTERHKKK [NTG2 C-terminal 12 aa] | 0.714 ± 0.0084 | 0.668 ± 0.028 |
| TPSEDDDGAVEI [LSM3 C-terminal 12 aa] | 0.688 ± 0.0068 | 0.749 ± 0.062 |
| NTEQAYSQPFRY [NVJ1 C-terminal 12 aa] | 0.702 ± 0.021 | 0.722 ± 0.016 |
| KLSAPIFSILHS [APT2 C-terminal 12 aa] | 0.721 ± 0.0083 | 0.504 ± 0.0051 |
| QAKFFYQDLMSL [YHL046W-A C-terminal 12 aa] | 0.72 ± 0.038 | 0.739 ± 0.052 |
| VLYIILYYIILY [YGL024W C-terminal 12 aa] | 0.282 ± 0.02 | 0.181 ± 0.035 |
| DERLEQLKRLGI [HOM3 C-terminal 12 aa] | 0.7246 ± 0.0048 | 0.677 ± 0.019 |
| LETAFEEWDYYE [MRX6 C-terminal 12 aa] | 0.731 ± 0.016 | 0.787 ± 0.064 |
| ERTSLLSGETQT [YPQ2 C-terminal 12 aa] | 0.67739 ± 0.00033 | 0.684 ± 0.014 |
| LQLFVNLGCPLS [YDR455C C-terminal 12 aa] | 0.727 ± 0.028 | 0.683 ± 0.019 |
| DDEFGDLDAVFF [SNF6 C-terminal 12 aa] | 0.747 ± 0.021 | 0.739 ± 0.0056 |
| VQQMVEMQGKMR [SGM1 C-terminal 12 aa] | 0.71134 ± 0.00034 | 0.68508 ± 0.00063 |
